The results in this text go back to patent US20230374148A1, “BINDING MOLECULES THAT MULTIMERISE CD45” (UCB BIOPHARMA SRL, priority 2020, published 2023).

Experiment [1] has as its system M2 macrophages. Nature of the experiment: Caspase-3/7 induction, IncuCyte, M2. To be noted: over 6 days, BYbe 250-2 nM, Camptothecin, Staurosporine 5 μM. Format: cell-based, human. As for the experimental part: Human PBMC derived from blood leukocyte platelet-apheresis cones (NHSBT Oxford) were banked as frozen aliquots. Prior to an assay being performed, 2 vials of frozen cells, each containing 5×10^7 cells in 1 ml, were thawed in a 37° C. water bath and then added to 50 ml complete media (RPMI 1640+2 mM GlutaMAX+1% Pen/Strep, all previous supplied by Invitrogen, +10% Fetal Bovine Serum (FBS), Sigma Aldrich). Cells were spun (500 g, 5 min, at RT) and re-suspended in 30 ml complete media to wash and spun again. Cells were resuspended in 20 ml MACS buffer (PBS, pH 7.2, 0.5% bovine serum albumin (BSA), and 2 mM EDTA, Sigma Aldrich) and counted on a ChemoMetec NucleoCounter NC-3000 to determine concentration and viability. PBMCs from one donor (UCB-Cones 802) was used in this assay. Monocyte isolation was performed using the Pan Monocyte Isolation Kit (Miltenyi Biotec, cat no. 130-096-537) and LS columns (Miltenyi Biotec, cat no 130-042-401) according to manufacturer's instructions. 100 μl of cells were removed and stored on ice to check monocyte purity post isolation. Isolated cells were stained with BV421 mouse anti-human CD14 (BD Biosciences, cat no. 563743) to check for purity of monocytes using FACS. M-CSF (Sigma Aldrich, cat no. SRP3110) and GM-CSF (R&D Systems, cat no. 215-GM/CF) were prepared at 100 μg/ml. Cells were prepared in M1 media (complete media+50 ng/ml GM-CSF) or M2 media (complete media+50 ng/ml M-CSF) at a concentration of 2.5×10^5 cells/ml. 200 μl cells were plated into two Corning 96 well Black polystyrene microplates (Sigma Aldrich) and incubated at 37° C., 5% CO2. Following a 3-day incubation at 37° C., 5% CO2, the plate was spun (500 g, 5 min, RT), buffer was aspirated, the cells were washed once with PBS and then resuspended in 200 μL of M1 media or M2 media. […] The caspase dye was measured with the green laser (350 ms) and the cytotox dye was measured with a red laser (650 ms). The green dye signal was analysed using Incucyte® Zoom2016B. […]

In experiment [2] the test system is Human whole blood. Description: Apoptosis of lymphocytes in whole blood. Format: cell-based. The conditions noted are these: 5 hrs. The method, then:
Human whole blood (Lithium heparin tubes) was taken from two donors (HTA #051119-01 & #051119-02) at UCB Pharma Slough, UK according to approved ethical sample collection protocol.
In a Greiner 96-well non-binding microplate, Fab-X and Fab-Y combinations 6294-X/4133-Y and NegCtrl-X/4133-Y, were added to PBS to give a Fab-KD-Fab concentration of 2750 nM. Similarly, a 2750 nM stock of 4133-6294 BYbe in PBS was prepared. The microplate was incubated for 1 hr at 37° C., 5% CO2. Following the incubation, Fab-KD-Fab and BYbe reagents were then serially diluted in PBS 1 in 5, nine times to produce to form a 10-point dose curve.
5 μl of each Fab-KD-Fab or BYbe dilution was added to Nunc™ 96-Well Polypropylene DeepWell™ plates (ThermoFisher). Then 50 μl of blood was added to each well, the plate gently mixed and sealed with a plate seal that allows gas exchange. These cells were then incubated for 5 hrs at 37° C., 5% CO2. Running the assay for a short time period avoids the need to add an anti-coagulant.
Following the incubation, 950 μl of BD Phosflow BD Lyse/Fix (cat no. BD558049, FisherScientific) was added to each well and the plate incubated at 37° C., 5% CO2 for 10 minutes. The plate was then spun at 500 g for 8 min, at 4° C. The buffer was aspirated and 1 ml of FACS buffer (PBS+1% bovine serum albumin (BSA)+0.1% NaN3+2 mM EDTA, Sigma Aldrich) added to wash cells using an Integra Viaflo 96 channel pipette. The plate was spun at 500 g for 8 min, at 4° C. As before, the buffer was aspirated and 1 ml of FACS buffer added to wash cells. This was followed by a slower spin at 250 g for 10 min, at 4° C. Again, buffer was aspirated and 1 ml of FACS buffer added to wash cells.
The plate was re-spun at 500 g for 8 min, at 4° C. Buffer was aspirated leaving the cells in a minimal residual volume for cell-specific antibody staining. 20 μl of cell-specific antibody cocktail (shown in Table 7 below) was added to the wells and the plate incubated for 1 hr at 4° C.
Following the incubation with the antibody cocktail, cells were washed twice as outlined above and buffer aspirated to leave the cells in 20 μl residual buffer. 20 μl of FACS buffer was then added to samples to dilute the cells. Cells were analysed live using the Intellicyt iQue Screener PLUS. Live cell counts were extracted as metrics and graphical representations generated using Graphpad Prism version 8.1 (Graphpad). Asymmetric (five parameter) curve fitting was applied to derive maximal % cell reduction and EC50 values.

B1: 4133-6294 BYbe: anti-CD45 BYbe (Fab-scFv): 4133 Fab HC-G4S linker-6294 scFv heavy chain paired with 4133 light chain (antibody)
heavy: QEQLVESGGGLVQPEGSLTLTCTASGFSFSGNYYMCWVRQAPGKGLEWIGCLYTGSSGSTYYASWAKGRFTISKTSSTTVTLQMTSLTAADTATYFCARDLGYEIDGYGGLWGQGTLVTVSSGQPKAPSVFPLAPCCGDTPSSTVTLGCLVKGYLPEPVTVTWNSGTLTNGVRTFPSVRQSSGLYSLSSVVSVTSSSQPVTCNVAHPATNTKVDKTVAPSTCSKPGGGGSGGGGSEVQLVESGAELARPGASVKMSCKASGYTFTSYTMHWVKQRPGQCLEWIGYINPSSGYTEYNQKFKDKTTLTADKSSSTAYLQLSSLTSEDSAVYYCARVGDGFYPSWLAYWGQGTLVTVSSGGGGSGGGGSGGGGSGGGGSDIQMTQSPKFLLVSAGDRVTITCKASQSVRNDVAWYQQKPGQSPKLLIFYASKRYTGVPDRFTGSGYGTDFTFTISTVQAEDLAVYFCQQDYSSPTTFGCGTKLEIK
light: AQVLTQTPSPVSAVVGGTVSISCQASQSVYNNNNLSWYQQKPGQPPKLLIYDASKLASGVPSRFKGSGSGTQFTLTISGVQCDDAATYYCLGGYYSSGWYFAFGGGTKVVVKRTPVAPTVLIFPPAADQVATGTVTIVCVANKYFPDVTVTWEVDGTTQTTGIENSKTPQNSADCTYNLSSTLTLTSTQYNSHKEYTCKVTQGTTSVVQSFNRGDC
Take B1: the “levels of Caspase-3/7” value in experiment [1] is “in-line with NegCtrl BYbe-treated and untreated macrophages”. The Max % reduction in experiment [2] (CD4+, Donor 1, whole blood) came to 50%; in experiment [2] (CD4+, Donor 2, whole blood), 54%; in experiment [2] (Total lymphocytes, Donor 1, whole blood), 34%; in experiment [2] (Total lymphocytes, Donor 2, whole blood), 44%.
